This series can be described thus: protein stability index of a GFP-peptide fusion (GPS, HEK-293T) (PSI 1-6); higher = more stable. The settings on record: c terminus: a fixed tail appended.

± gives the standard deviation.
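Note: 24-mer peptide tiles fused after GFP, lentivirally expressed, FACS-sorted into six equal bins by GFP/DsRed ratio, decoded by Illumina sequencing, PSI is the read-weighted mean bin number.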

RIYSYQMALTPVVVTLWYRAPEVL [CDK4]: the protein stability index worked out at 2.98 ± 0.12 (treatment: DMSO) and 2.77 ± 0.47 (treatment: MLN4924 1 uM, 8 h).
As to RIYVLGGGTSWTAYSLNKIHAYNL [KLHDC10], the protein stability index was 2.42 ± 0.41 (treatment: DMSO) and 2.61 ± 0.67 (treatment: MLN4924 1 uM, 8 h).
On the same counts, the results for RKGELVTASKAIIEKEYQPHVIVS [ADD1] are 3.62 ± 0.18 and 3.97 ± 0.21.
Consider RKKEAKRKISSLSFTLEEEEEGGE [FAM50A], for which the protein stability index reads like this: (treatment: DMSO) 5.33 ± 0.41; (treatment: MLN4924 1 uM, 8 h) 5.67 ± 0.41.
The corresponding values for RKLSQGILIIRFEMPYNIWCDGCK [YJU2B] are 2.57 ± 0.62 and 3.3 ± 0.79.
The corresponding values for RKPGMSSTARRSRAASSQRAEEED [CHMP4C] are 5.38 ± 0.17 and 5.41 ± 0.25.
Regarding RKQARQLENELDLKLVSFSKLCTS [GOSR1], the protein stability index (treatment: DMSO) was 3.03 ± 0.34 and the protein stability index (treatment: MLN4924 1 uM, 8 h) amounted to 3.22 ± 0.54.
For the sequence RKTVCHNGVLGLSRLLFFLLGFLR [LPCAT4], the protein stability index runs as follows: (treatment: DMSO) 2.92 ± 0.35; (treatment: MLN4924 1 uM, 8 h) 3.04 ± 0.38.
The corresponding values for RLDASTSHQNLRVDDLSVEWDAMG [FSD1] are 4.51 ± 0.34 and 4.62 ± 0.34.
Regarding RLIEVEDMMVMGRKPDPMCVFTYV [SMTNL2], the protein stability index turned out to be 2.38 ± 0.37 (treatment: DMSO) and 2.59 ± 0.41 (treatment: MLN4924 1 uM, 8 h).
For the sequence RLKLMQQNPAGELEGFQAQGHPPS [ATE1], the protein stability index runs as follows: (treatment: DMSO) 4.29 ± 0.18; (treatment: MLN4924 1 uM, 8 h) 4.31 ± 0.12.
Take RLPGGGWTLRRTKELRKDYQGPGT [DYRK1B]: the protein stability index runs as follows: (treatment: DMSO) 3.14 ± 0.26; (treatment: MLN4924 1 uM, 8 h) 3.43 ± 0.35.
With RMDTPPPEERLEKQNEKLNNQEEE [CCDC89], the protein stability index is, setting by setting: (treatment: DMSO) 5.55 ± 0.29; (treatment: MLN4924 1 uM, 8 h) 5.48 ± 0.28.
In the case of RMEEIVEGCTGALHILARDVHNRI [CTNNB1], the protein stability index reads like this: (treatment: DMSO) 2.74 ± 0.19; (treatment: MLN4924 1 uM, 8 h) 2.89 ± 0.28.
The corresponding values for RMLEFDPAQRITLAEALLHPFFAG [CLK3] are 2.38 ± 0.25 and 2.39 ± 0.19.
RPATAADCSDILRLIKELAKYEYM [SAT1]: the protein stability index (treatment: DMSO) is 2.06 ± 0.14 and the protein stability index (treatment: MLN4924 1 uM, 8 h) turned out to be 2.48 ± 0.18.
The corresponding values for RQAELLEKRLQEIEELEREAERKI [SRPK2] are 5.13 ± 0.32 and 5.18 ± 0.14.
For RQITQVYGFYDECLRKYGNANVWK [PPP2CA], the protein stability index is, setting by setting: (treatment: DMSO) 2.19 ± 0.33; (treatment: MLN4924 1 uM, 8 h) 2.33 ± 0.26.
Regarding RQLDPSNCLGIRAFADTHSCRELL [KLHL20], the protein stability index (treatment: DMSO) came out at 3.07 ± 0.32 and the protein stability index (treatment: MLN4924 1 uM, 8 h) worked out at 3.23 ± 0.3.
The corresponding values for RQNVPRKVPNHYIAIPEWFLSENA [CPXM2] are 2.82 ± 0.23 and 3.05 ± 0.5.
On the same counts, the results for RQRLAKNDRGDHYHWKDLNRGINI [EFHC1] are 2.96 ± 0.46 and 2.99 ± 0.21.
The corresponding values for RRHPGLGKAFPSGCSAVSEPASES [TRAF3IP2] are 4.31 ± 0.18 and 4.3 ± 0.41.
As for RRSTTDLRGTQFDYERGKGESTED [ZSWIM9], the protein stability index runs as follows: (treatment: DMSO) 5.57 ± 0.17; (treatment: MLN4924 1 uM, 8 h) 5.53 ± 0.15.
RSEALAVDGAGKPGAEEAQDPEGK [CHGA]: the protein stability index runs as follows: (treatment: DMSO) 5.61 ± 0.15; (treatment: MLN4924 1 uM, 8 h) 5.561 ± 0.045.
On the same counts, the results for RTAQSEETRVWHRRDGKWQIVHFH [CAMK2A] are 3.15 ± 0.16 and 3.12 ± 0.26.
For the sequence RTSSGNVWVTHEEMETLETSTKTD [PPFIA4], the protein stability index is, setting by setting: (treatment: DMSO) 5.24 ± 0.35; (treatment: MLN4924 1 uM, 8 h) 4.99 ± 0.06.
Consider RVDFEEFVELIGPKLREETAHMLG [CABP4], for which the protein stability index is, setting by setting: (treatment: DMSO) 2.58 ± 0.25; (treatment: MLN4924 1 uM, 8 h) 2.73 ± 0.39.
For RVDHGAEIITQSPGRSSVASPRRL [MAP2], the protein stability index stood at 4.45 ± 0.13 (treatment: DMSO) and 4.71 ± 0.17 (treatment: MLN4924 1 uM, 8 h).
The corresponding values for RVILEIDNARLAVDDFRLKYENEL [KRT13] are 2.4 ± 0.25 and 2.66 ± 0.45.
For the sequence RVLFIKDVIGDEICCWSFYGQGRK [KCTD10], the protein stability index stood at 1.89 ± 0.51 (treatment: DMSO) and 2.38 ± 0.23 (treatment: MLN4924 1 uM, 8 h).
Turning to RVLRQPRPALAQQAQGARAGGSAR [GMCL1], the protein stability index was 5.03 ± 0.23 (treatment: DMSO) and 4.93 ± 0.19 (treatment: MLN4924 1 uM, 8 h).
RVSNPGRLAELLLLETDAGPAASE [GADD45A]: the protein stability index runs as follows: (treatment: DMSO) 4.46 ± 0.28; (treatment: MLN4924 1 uM, 8 h) 4.28 ± 0.26.
In the case of RVVDGTPCSPDSSSVCVQGRCIHA [ADAMTS4], the protein stability index (treatment: DMSO) is 4.21 ± 0.35 and the protein stability index (treatment: MLN4924 1 uM, 8 h) amounted to 4.39 ± 0.16.
For RWMGLACFRSLAASSPSIRQKKLM [CCDC70], the protein stability index by setting is: (treatment: DMSO) 2.29 ± 0.61; (treatment: MLN4924 1 uM, 8 h) 2.29 ± 0.4.
The corresponding values for RYRGLGLLASVPSNPNGNGGFMGY [CRY1] are 2.53 ± 0.14 and 2.91 ± 0.19.
The corresponding values for SAPHLENSGHTIFNDPFFIVETVC [KCNA4] are 2.43 ± 0.23 and 2.46 ± 0.38.

These data come from the supplement of paper PMC10567573.
